Assay results as given in patent US7777010 (CRUCELL HOLLAND B V, dated 2010).

Key:
[1] = molecular target: T1, purified recombinant Ep-CAM produced in insect cells (UniProt P16422 24-265, limits assumed); assay: SPR (BIAcore), recombinant Ep-CAM coupled to CM5 chip, IgG1 in flow
T1 construct: Coupled to a CM5 sensor chip by NHS/EDC; Neither the species nor the construct limits are stated at this place
T1 sequence (looked up): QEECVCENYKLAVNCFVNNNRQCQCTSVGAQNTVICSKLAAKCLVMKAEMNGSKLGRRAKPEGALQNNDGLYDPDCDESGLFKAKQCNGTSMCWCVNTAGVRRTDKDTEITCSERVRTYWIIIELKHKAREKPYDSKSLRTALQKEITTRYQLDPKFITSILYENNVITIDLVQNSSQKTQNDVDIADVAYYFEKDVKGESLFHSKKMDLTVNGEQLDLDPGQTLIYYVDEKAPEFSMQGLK
Experimental: (§1) In separate BIAcore flow cells, approximately 160, 1565 and 4154 resonance units of purified recombinant Ep-CAM produced in insect cells (kindly provided by Dr. D. Herlyn, Wistar institute, Philadelphia, Pa.) (25 µg/ml) in 10 mM acetate buffer (pH 4.0) were coupled to a CM5 sensor chip using NHS/EDC coupling chemistry. Association and dissociation were measured under continuous flow of […] using a concentration range from 100 to 1 nM.
(§2) The kinetic association and dissociation rates of the original huMab UBS-54 and the mutant huMabs A37 and C52 were determined by surface plasmon resonance (Table 1). […] The improvement was mainly the result of a lower […].

[2] = molecular target: T1, purified recombinant Ep-CAM produced in …; assay: SPR (BIAcore), recombinant Ep-CAM coupled to CM5 chip
Experimental: as §1, §2

| Binder | Kd [1] [nM] | koff [1] [s⁻¹] | kon [1] [M⁻¹ s⁻¹] | fold increase in affinity against the original huMab UBS-54 [2] [fold] | fold improvement of binding affinity against the original UBS-54 huMab [2] [fold] |
| --- | --- | --- | --- | --- | --- |
| huMab UBS-54 (antibody, V domains shown, Tested as an intact human IgG1/kappa huMab made in BHK cells (VH1 / Vk2 V regions); FITC-labelled in the spheroid experiment; also called original huMab UBS-54; original UBS-54) VH: QVQLVQSGAEVKKPGSSVRVSCKASGGTFSSYAISWVRQAPGQGLEWMGGIIPIFGTANYAQKFQGRVTITADESTSTAYMELSSLRSEDTAVYYCARDPFLHYWGQGTLVT VL: not shown | 6 | 0.0006 | 100000 | – | – |
| huMab A37 (antibody, V domains shown, Tested as an intact human IgG1/kappa huMab made in BHK cells; It has the UBS-54 VH with a shuffled Vk3 light chain; also called mutant A37) VH: QVQLVQSGAEVKKPGSSVRVSCKASGGTFSSYAISWVRQAPGQGLEWMGGIIPIFGTANYAQKFQGRVTITADESTSTAYMELSSLRSEDTAVYYCARDPFLHYWGQGTLVT VL: EIELTQSPGTLSLSPGERATLSCRASQTISNNYLAWYQQKRGQAPRLLIYAASSRATGIPDRFSGTGSGTDFTLTISRLEPEDFAVYYCAQGELYPRQFGGGTKLEI | 1.6 | 0.00041 | 250000 | ~4 | – |
| huMab C52 (antibody, V domains shown, Tested as an intact human IgG1/kappa huMab made in BHK cells; It has the B43 VH with a DNA-shuffled A37-derived Vk light chain; FITC-labelled in the spheroid experiment; also called mutant C52) VH: QVQLVQSGAEVKKPGASVKVSCKASGGTFSSYAISWVRQAPGQGLEWMGGIVPIFGTANYAQKFQGRVTITADESTSTAYMELSSLRSEDTAVYYCARDPFLHYWGQGTLVT VL: EIELTQSPGTLSLSPGERATLSCRASQSVSSSYLAWYQQKPGQAPRLLIYGASSRATGIPDRFSGSGSGTDFTLTISRLEPEDFAVYYCAQGELYPRQFGGGTKLDI | 0.4 | 0.00011 | 270000 | – | 15 |
